Molecular target: T1, ZmNF-YA8 (Zea mays, UniProt B6SPD7 2-301)
T1 sequence: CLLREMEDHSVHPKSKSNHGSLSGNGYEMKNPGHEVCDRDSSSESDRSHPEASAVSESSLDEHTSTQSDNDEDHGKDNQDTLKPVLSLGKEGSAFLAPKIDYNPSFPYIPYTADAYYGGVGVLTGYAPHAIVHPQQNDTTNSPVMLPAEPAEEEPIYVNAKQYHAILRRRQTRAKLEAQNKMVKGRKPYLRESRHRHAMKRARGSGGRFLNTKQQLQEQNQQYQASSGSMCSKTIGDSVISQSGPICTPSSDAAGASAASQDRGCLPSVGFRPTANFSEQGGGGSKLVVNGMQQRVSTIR
Assay: EMSA; shifted band reduced by 20x unlabelled probe and eliminated at 40x; 20 min incubation; nondenaturing 4% polyacrylamide gel, 0.5x TBE; LightShift Chemiluminescent EMSA kit; binding buffer, salt, pH and temperature not stated
Conditions: protein: recombinant; tags: His (pET28a); blunt

B1: ZmERF1B promoter P1 CCAAT-box EMSA probe (dsDNA)
DNA 1: GGCGCGCATTCGCCTCGCCTCCAATTCCCATCCATCACTAACTTG
DNA 2: CAAGTTAGTGATGGATGGGAATTGGAGGCGAGGCGAATGCGCGCC
B1: binds.
